Here are results for two molecules from patent US12258605B2, “Alkane oxidation by modified hydroxylases” (The California Institute of Technology, priority 2005, dated 2025).

The conditions of data set [1]: laurate; cited from earlier work.
The nature of data set [2]: T50 determination (heat inactivation of CO-binding). In kind it is physicochemical. Here is the method: T50 determination. A solution of purified enzyme (1-3 μM) in 100 mM KPi pH 8.0 buffer was transferred on a PCR 96-well plate and incubated for 10 minutes at different temperatures (from 37° C. to 60° C.) in a PCR thermocycler. The plate was then cooled on ice, centrifuged at 1500 g for 10 min. 160 μL of the protein solution was then transferred on a 96-well microtiter plate with 40 μL of sodium hydrosulfite 0.1 M in 1 M KPi pH 8.0. A protein sample incubated at room temperature and one incubated on ice were included in the series. Concentration of folded protein was then determined by measuring CO-binding difference spectra using absorption at 450 and 490 nm and extinction coefficient ε450-490=91,000 M^−1 cm^−1. CO-binding signals were normalized to protein concentration of the sample incubated at 4° C. T50 values were calculated as midpoint inactivation temperatures from nonlinear fitting to the heat-inactivation curves. Experiments were carried out in triplicate.
As a first step, we aimed at increasing the thermostability of 35E11 heme domain in order to obtain a more ‘evolvable’ parent. […] To regain stability and allow further evolution, stabilizing mutations, derived from a thermostable peroxygenase, was tested in single and in combination (Table 16). The effect on enzyme's thermostability of each single mutation or combination thereof on thermostability was evaluated by monitoring temperature-dependent inactivation of the enzyme's CO-binding (FIG. 36C). Among 35E11 derivatives, ETS8 was selected as the best candidate for further evolution experiments, in that its higher thermostability (ΔT50=+5.1° C.) was accompanied by only a 20% decrease in propane activity on propane. […]
T50 values determined from heat-inactivation curves of heme-dependent CO-binding spectral shift show how mutations accumulated during laboratory evolution affected enzyme stability (FIG. 37E) and enable an estimation per-mutation stability penalties for each directed evolution round (FIG. 37F). […]

B1: Wild-type BM-3: wild-type cytochrome P450 BM-3 from Bacillus megaterium, SEQ ID NO:1 (protein, listed as Bacillus megaterium)
chain: TIKEMPQPKTFGELKNLPLLNTDKPVQALMKIADELGEIFKFEAPGRVTRYLSSQRLIKEACDESRFDKNLSQALKFVRDFAGDGLFTSWTHEKNWKKAHNILLPSFSQQAMKGYHAMMVDIAVQLVQKWERLNADEHIEVPEDMTRLTLDTIGLCGFNYRFNSFYRDQPHPFITSMVRALDEAMNKLQRANPDDPAYDENKRQFQEDIKVMNDLVDKIIADRKASGEQSDDLLTHMLNGKDPETGEPLDDENIRYQIITFLIAGHETTSGLLSFALYFLVKNPHVLQKAAEEAARVLVDPVPSYKQVKQLKYVGMVLNEALRLWPTAPAFSLYAKEDTVLGGEYPLEKGDELMVLIPQLHRDKTIWGDDVEEFRPERFENPSAIPQHAFKPFGNGQRACIGQQFALHEATLVLGMMLKHFDFEDHTNYELDIKETLTLKPEGFVVKAKSKKIPLGGIPSPSTEQSAKKVRKKAENAHNTPLLVLYGSNMGTAEGTARDLADIAMSKGFAPQVATLDSHAGNLPREGAVLIVTASYNGHPPDNAKQFVDWLDQASADEVKGVRYSVFGCGDKNWATTYQKVPAFIDETLAAKGAENIADRGEADASDDFEGTYEEWREHMWSDVAAYFNLDIENSEDNKSTLSLQFVDSAADMPLAKMHGAFSTNVVASKELQQPGSARSTRHLEIELPKEASYQEGDHLGVIPRNYEGIVNRVTARFGLDASQQIRLEAEEEKLAHLPLAKTVSVEELLQYVELQDPVTRTQLRAMAAKTVCPPHKVELEALLEKQAYKEQVLAKRLTMLELLEKYPACEMKFSEFIALLPSIRPRYYSISSSPRVDEKQASITVSVVSGEAWSGYGEYKGIASNYLAELQEGDTITCFISTPQSEFTLPKDPETPLIMVGPGTGVAPFRGFVQARKQLKEQGQSLGEAHLYFGCRSPHEDYLYQEELENAQSEGIITLHTAFSRMPNQPKTYVQHVMEQDGKKLIELLDQGAHFYICGDGSQMAPAVEATLMKSYADVHQVSEADARLWLQQLEEKGRYAKDVWAG
By Km is commonly meant the concentration of substrate that gives half-maximal velocity. Turning to B1, in data set [1], the Km is 210 µM and the catalytic efficiency is 190000 M⁻¹ s⁻¹.

B2: 35-E11: P450 BM-3 variant, SEQ ID NO:7: 53-5H substitutions plus E464G and I710T (protein)
chain: TIKEMPQPKTFGELKNLPLLNTDKPVQALMKIADELGEIFKFEAPGCVTRYLSSQRLIKEACDESRFDKNLSQALKFFRDFSGDGLFTSWTHEINWKKAHNILLPSFSQQAMKGYHAMMVDIAVQLVQKWERLNADEHIEVSEDMTRLTLDTIGLCGFNYRFNSFYRDQPHPFIISMVRALDEVMNKLQRANPDDPAYDENKRQCQEDIKVMNDLVDKIIADRKARGEQSDDLLTQMLNGKDPETGEPLDDGNISYQIITFLIAGHETTSGLLSFALYFLVKNPHVLQKVVEEAARVLVDPVPSYKQVKQLKYVGMVLNEALRLWPTFPAFSLYAKEDTVLGGEYPLEKGDEVMVLIPQLHRDKTIWGDDVEEFRPERFENPSAIPQHAFKPFGNGQRACIGQQFALHEATLVLGMMLKHFDFEDHTNYELDIKETLTLKPEGFVVKAKSKKIPLGGIPSPSTGQSAKKVRKKAENAHNTPLLVLYGSNMGTAEGTARDLADIAMSKGFAPQVATLDSHAGNLPREGAVLIVTASYNGHPPDNAKQFVDWLDQASADEVKGVRYSVFGCGDKNWATTYQKVPAFIDETLAAKGAENIADRGEADASDDFEGTYEEWREHMWSDVAAYFNLDIENSEDNKSTLSLQFVDSAADMPLAKMHGAFSTNVVASKELQQPGSARSTRHLEIELPKEASYQEGDHLGVIPRNYEGTVNRVTARFGLDASQQIRLEAEEEKLAHLPLAKTVSVEELLQYVELQDPVTRTQLRAMAAKTVCPPHKVELEALLEKQAYKEQVLAKRLTMLELLEKYPACEMKFSEFIALLPSIRPRYYSISSSPRVDEKQASITVSVVSGEAWSGYGEYKGIASNYLAELQEGDTITCFISTPQSEFTLPKDPETPLIMVGPGTGVAPFRGFVQARKQLKEQGQSLGEAHLYFGCRSPHEDYLYQEELENAQSEGIITLHTAFSRMPNQPKTYVQHVMEQDGKKLIELLDQGAHFYICGDGSQMAPAVEATLMKSYADVHQVSEADARLWLQQLEEKGRYAKDVWAG
modifications: mutant P450 35-E11 protein sequence
For the molecule B2, in data set [2] (10 minutes incubation, midpoint inactivation temperature of CO-binding), the T50 is 43.4 ± 0.6 °C. Besides, the ΔT50 is 0 °C in data set [2] (relative to 35E11) and −11.6 °C in data set [2] (stability loss from wild-type to 35E11).
